T1: Abp1 SH3 (ABP1_YEAST), P15891
T1 chain: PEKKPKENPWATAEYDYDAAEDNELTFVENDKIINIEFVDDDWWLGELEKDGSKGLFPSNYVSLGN


Target: T1, Abp1 SH3 (ABP1_YEAST), P15891
Experiment: SPOT array

Binder	normalised SPOT signal, Boehringer light units (BLU); mean over the file's lines of this peptide
GSSELEEPIAIRP [YHR020W 279-291]	107
GYFFHDPKFIPNKP [YGR019W 332-345]	174
GGIIPTVNGKPVRP [YBR012W-A 198-211]	430
GKSIYFSDIVPSKP [YJL186W 204-217]	108
GDTVYIVHWEPSKP [YIL154C 237-250]	48
GIFNALPPPNTKP [YDL046W 25-37]	136
GLQGDQFPRQQRP [YDR240C 296-308]	124
GISHTRMPTESRP [YKL165C 94-106]	80
GKIELTSPITSKP [YEL019C 178-190]	73.6
GKLVDLTPASMKP [YGR196C 563-575]	41.6
GVNLDPSVKIPAKP [YIR007W 25-38]	112
HGLPRNADSQPARP [YIR013C 32-45]	154
GKDIPFFPSSEKP [YDR443C 544-556]	140
GQLANSSSRAPAKP [YDL222C 69-82]	127
GLKYAQSPKFSKP [YKL212W 605-617]	131
GRAPRETPEWRRP [YGL034C 16-28]	2720

Binder	normalised SPOT signal, Boehringer light units (BLU); mean over the file's lines of this peptide
GYDVKVTPWEKRP [Q0055 610-622]	139
HDKDVIVPNVWRP [YEL036C 221-233]	123
HASLLVRDSKPSKP [YBR193C 182-195]	91.3
GKDKSRPPRPPPKP [YIL095W 743-756]	41900
GGKYQGFGSTPAKP [YDL226C 208-221]	56.7
GSSPQPLPELIKP [YGR270W 682-694]	55.9
HEESNNYVEIPKKP [YHR092C 51-64]	137
GNIVEIAPLIPKKP [YDR080W 593-606]	318
GDELSQGPNVLKP [YDR305C 168-180]	67.5
GLNDSTEPVLHKP [YIL044C 131-143]	135
GMTKTPETSPPKRP [YDR200C 28-41]	169
GEEHEPVVEIPKRP [YDR342C 45-58]	70.9
GWYLTGAPNILKP [YDL203C 543-555]	102
HSYRQLAPTHHRP [YFL015C 82-94]	703
GKLLKSYPTSARP [YGR238C 700-712]	204
GVNYVDYYPLPDKP [YGL137W 186-199]	122

The remaining lines, values ahead:

normalised SPOT signal, Boehringer light units (BLU); mean over the file's lines of this peptide	Binder
224	GKNKMHEPKNGRP [YOR006C 4-16]
2310	GVRNIMIPFPNRP [YOR093C 1314-1326]
58.6	GTKSQESPLNKKP [YNL042W 210-222]
108	GSTAVSFPSSGKP [YLR313C 322-334]
176	GVFMNWSPRFDRP [YLR023C 375-387]
499	GNGMYKIPSNTKP [YPL116W 648-660]
8770	GPAPPPPPRASRP [YOR181W 384-396]
13.4	GEGHSDQPQNPKP [YML118W 352-364]
866	GRLTPGLPRSYKP [YPR111W 45-57]
107	HADSVADPRSSRP [YOL085C 38-50]
78.1	GDHLQNDPLSLRP [YOR316C 398-410]
121	GDLGKEFGTTPEKP [YPL231W 188-201]
106	GTKKIAGVQVPAKP [YPL107W 67-80]
131	GVVLRVMVLKPKKP [YNR036C 60-73]
172	GYRKAALKYHPDKP [YNL007C 25-38]
65.2	GKSRRKTNTKPSRP [YPL137C 17-30]
87.2	GSVWSKTPPEIKP [YOL100W 451-463]
51.2	GDKYQVDPKTSKP [YLR454W 1837-1849]
292	GNPLYTTPKTPPRP [YKR028W 953-966]
83.5	GTFESKHVVIPFKP [YLR238W 83-96]
25200	GSKSGPPPRPKKP [YNL138W 349-361]
57.2	GIKTRKFVFNPPKP [YOR065W 294-307]
210	GINMKKGFINPRKP [YLL021W 560-573]
86.6	GPQKEEAPKKHRP [YMR076C 1094-1106]
48.5	GVADPQNSLNPSKP [YOR363C 848-861]
60.8	GQFSPENPNEFKP [YPR160W 817-829]
134	GTSASHSPRPFRP [YLL029W 25-37]
